The numbers were not newly measured in paper PMC3652491, which cites them from elsewhere.

The data set addresses Nef peptide 12-residue peptide (Human immunodeficiency virus 1) (UniProt P04324).

For the substance Hck SH3 (from UniProt P08631), the Kd was 90 µM.
